A protein production outcome set (Wang et al. 2014)

Assay: label from the status in PepcDB records
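Also: failed if final PepcDB status was selected cloned or expressed and not failed if soluble or beyond.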

For “MEEKSKYLSLVGAGALIGSISTVALLKLLSRSSLKQLNENPETNFLAGNGIESETRPDTVANGQDLLKDEIVSEHLTRNIQFFGLESQHKVTGSYVVVIGLGGVGSHAASMLLRSGVGKLLLVDFDQVSLSSLNRHAVATRADVGIPKAMCLKKHFSSIFPECHIEAKVMLYDSSSEEEILSGKPDFVLDCIDNIDTKVGLLAACVKRGLKVLSATGAGARADPTRIRVADIRESTIDPLSRSVRHRLRRKHGIEGGIPVVFSLEKPKAKLLPFEGTNGEDENPLDYQVVPGFRVRIIPVLGTIPAIFGQIMASYVITQLAGVQVQMEPIVNLDLDHYRLLHQRLIEHEETVYGTSAEVEVDVEEVMYIVKELWHGRSARDETAKDVGRGMWRAMNELMLVRWDAKKPATVSNLVLLKFKEADEHETKTLEEVKESETEFFERVSCVLKKAELDFYG”, the protein production was “failed”.
With “MNLVKFTLDKANSQAYSSEQTTTEVSNMTIENGVRVLAGSMVLLSVILTWFVHPNFLWLTVFVGVNLIQSAFTGFCPAAFFLKKLGLR” the protein production was “failed”.
In the case of “MAACPELVDATFAILASGWHSTAVEVGGRWVFKFPRGAEAEAALLREAAVLRLVRPAVSLPVPAPQVFAGPPLFSRHEKLPGGYLLGEDYRRLDEPARQAVGDALGRFYAELHRLPPARMRAVGALPVRPWESPAAMRRRALPLLPAAWRERAERLVREYAKLPADPLGSIFGFFDGHGWNMAFDSEAGRLNGVYDFADAGIGPLHQEFIYSAFIDADLTERIVAAYERFSGRRLERRRIALLTAAHRLSELAELADEPRHLPDMLAGALDGLALAEAQGLA”, the protein production is reported as “failed”.
In the case of “MNSEFDVIDRYFTRPRRNALLGPGDDAALIACKPGMDWAISVDTLVAGRHFFPDVDPATLGHKVLAVNLSDMAAMGATPCWATLSLTLTETLAQDDIWLKAFSSGFFALADQYQVELIGGDTTGGPLNISVQIIGEVERGKALRRSGAQPGDDIWVSGHLGDAALALQSLQQHVTLTAQEAAPCLAALHTPMPRVALGKALVNVAHSAIDISDGLLADLGHILDRSGVAATIDFDHIPRSPALKNKLQPENTVTNTICQLAIDCLLAGGDDYELCFTVPESKRDAVIQLAQESGILLSRIGKIIPGKGLTVLGTDSNPLIFKNKGYDHFSAR”, the protein production is reported as “failed”.
In the case of “MSLLQQADRLHRQLLRTGPAQAPCWEPPVDMIETESAVLIYVALPGVAAGDVAVRFDPDGISISGVRPLPALRNARIHGLEIPYGRFQRRIRLPLHALEPEAPTLADGCLTLTLKKLREAPLEHHHHHH”, the protein production is reported as “failed”.
In the case of “MSERNPILITGAAGEVGGVSRTTVDMLLEQGHPVRAFVRQDDERAHALRQAGAEVFVGDLLTIADVSAALKGVRRIYFSMSLSPYYTDAVSLMAAAARAQGDIEVFVNISEYEQSFMTFEKMTAPEEERRAWLGGLVANWSPQQRAHWVAEQVLDWSGLPTVNIRAAMFVENPLMTWLALEPLANGELRLPFGHHRLAPIAGYDVAELCVKILADPAPHISKSYDLNGPELKDMHGFAEDYAAALGRQVTYVPEDVETWNETYVDTVLGALPHTAEHLKTLTRLMGGGGYRGVTDQLETLLGRPPKTVRWALENHPRIRKLASA”, the protein production is reported as “failed”.
With “MGHHHHHHSHMKMEHQNKRSPLHAAAEAGHVDICHMLVQAGANIDTCSEDQRTPLMEAAENNHLEAVKYLIKAGALVDPKDAEGSTCLHLAAKKGHYEVVQYLLSNGQMDVNCQDDGGWTPMIWATEYKHVDLVKLLLSKGSDINIRDNEENICLHWAAFSGCVDIAEILLAAKCDLHAVNIHGDSPLHIAARENRYDCVVLFLSRDSDVTLKNKEGETPLQCASLNSQV” the protein production was “failed”.
In the case of “MSDFNLVGVIRVMPTDPDVNLDELEEKLKKVIPEKYGLAKVEREPIAFGLVALKFYVLGRDEEGYSFDEVAEKFEEVENVESAEVETVSRI”, the protein production is reported as “not failed”.
For “MDIEVDIIEFKVPLENNKTIFIWDIQPTFTEAYIYESLWSVYSAFGDLYLLKVCPNATVAEPGFYALVKFYSSAQASKAQRATDKQCLFQSSPLKVRLSTKQNLSFYSSKPLCLSKCHNLANHYLGFGGWTTRIVTLKDLSNCVDAGCQEETGDQGVLLKYGCIMELSFPHHGMSCQGVGVAEEVLDSDQDPEEKLRKRGALMKRAKDKAMEVAFEKVLLLILGNGKVAIEIKIDPDEIVPEENSERVIKVNDISWTHIESADSNAEEDFLWDLTEDLPY”, the protein production was “failed”.
For “MKMTVVGFWGGFPEAGEATSGYLFEHDGFRLLVDCGSGVLAQLQKYITPSDIDAVVLSHYHHDHVADIGVLQYARLITSATKGQLPELPIYGHTFDENGFHSLTHEPHTKGIPYNPEETLQIGPFSISFLKTVHPVTCFAMRITAGNDIVVYSADSSYIPEFIPFTKDADLFICECNMYAHQEAAKAGHMNSTEVASIAKDANVKELLLTHLPHTGNPADLVTEAKQIFSGHITLAHSGYVWNS”, the protein production was “not failed”.
In the case of “MQHGPVVRRRKLGAELRALRTSAGITSGEAARLVGWHQSKVSRIETGTSGAKPADVRLLLDAYGVTDEQLRGLLVMLAHSEDAGGRNHWWHAYRGVLPPTYRDFISLESQAAAMRTLETTVVPGLLQTPEYARAVTRAAVDGMPAERLDTLVEVRLARQDVLRGEPPLELSAVLDEAVLRRVVGGPGVMSRQLTRLVEAAQLPHVRIQVLPFAAGAHIGVTGPFVIFSFSSTSDLDVVVLDHLTSSLHLERKEDLEAYTEAFNALLIHALSPEDSLDFIAATAAGA”, the protein production is reported as “failed”.
For “MSKQPWLGYLASVAITCTAAGLAYLLDHWLLPTSGTVLILQLAVLLIAFLTNFRAALLAVVLALLLFNFLFTEPRYSLHMTDIDEMVTAIVFIAVGVITSHLVTLFRNQKESLRQAQLRSNILLSVSHDLRTPLASVIGNLSTLQAYQERLPEQERAELLQGALDESDRLHRYIENLLQATRLQHGEIRLTHAVQDIRPVISKTLSRFASQERLLVKDNLQHAMVEVQSSLLEQALFNVIDNAMRFSGETAPVTLSLSETDKFIVIDIKDEGPGIETSKRSLVFNVFYSSREKDSGTGGTGLGLSVAKGIIDIHNGHIGIEESPDGCLVRIKLPRANITEEVS”, the protein production was “failed”.
For “MVINSTVWQCEATGKENLTYEEAVKSERAARKKMEQFKQSLRAPVLLVVEHAQQSAVNTLNMIVAKFLRKRYFIGEEVSVQAKKNATYTVLGVKLDKNMPEPLNGIYEDTDNLVYRLRPNKGDPSAELDLPFRQLRRSRMEFNLENLSMFIKSNVSRVDGLLRPKPEA”, the protein production was “failed”.
In the case of “MPLVSVVMPVYNSAATLGAAVRSVLTQTHGDLELLVTDDQSSDGSMDLLREFAAQDERVLPRSSPERGGAGRARNLAIERARGDYVAFLDSDDMWLPEKTEKQLAFAAEGTAPLTFTSYFKMDADHDGESTDWVPNGRVIRAREHVDYRAMLVQDHIGALTAMYDRNVLGTRLMPEMRKRQDYALWLSIMRDGADARGLAEPLAVYRAHQAGSLSSNKLSLVEYNWALYREHENLSVPRATRALAGAVWQSLRNSRILEHHHHHH”, the protein production is reported as “failed”.
For “MKKSKRKNAQAQEAQETEVLVQEEAEELPEFPEGEPDPDLEDPDLTLEDDLLDLPEEGEGLDLEEEEEDLPIPKISTSDPVRQYLHEIGQVPLLTLEEEVELARKVEEGMEAIKKLSEITGLDPDLIREVVRAKILGSARVRHIPGLKETLDPKTVEEIDQKLKSLPKEHKRYLHIAREGEAARQHLIEANLRLVVSIAKKYTGRGLSFLDLIQEGNQGLIRAVEKFEYKRRFKFSTYATWWIRQAINRAIADQARTIRIPVHMVETINKLSRTARQLQQELGREPTYEEIAEAMGPGWDAKRVEETLKIAQEPVSLETPIGDEKDSFYGDFIPDEHLPSPVDAATQSLLSEELEKALSKLSEREAMVLKLRKGLIDGREHTLEEVGAFFGVTRERIRQIENKALRKLKYHESRTRKLRDFLD”, the protein production was “not failed”.
For “MAIRRCYIAQNPKSSCRFNCVRERFEDLRGVPCLVYEGETRDWINAALFLEDENESEDRKRFVLHTSHSALLYMEYDLTSNADCTVLELARCTDSSILYYTKLHGSSFNKLAIISGNAFGELLVWQTQFPTESDPKSVMKTYPLLLRIEAHNGVIHSIEFDLQSQLLVTTSDDRSVKFWNIQKSGDWTTAEIKPMFSCYGHSSRVMCVVILKIDDRTFVASGGEDSYVCIWSSSGELILKRRQQFGAPIWRLGFSQDAEILYSTSSTGNLVGQNLKEVLNRPKIESTILSSLGDANEFVRNLKFVNNEIIVGLSSLNRLYYTRISPDSSHENKWLMVNDFPSYKRTVLEVFDDIIATCGHRRITLHRDRYLVSDNLGYCLLLQTHQLHIESHIALFNNREPWITAALLISEQYLLLGNREGHVMLYCRSSASDDFQLKDSIRYLHGKMGSNFFKLLSLNADNAHVMSGGHEAFLKYLSVRFSDSTLRVSQREGIPLAWVEASPSDDLILGFNDNHIVAWSRRNDILLQLACGGGHRCWDFRLSDGDSQLSIAYVKQKRVYFYRNSLYNAVDNRLKDIEPNNWHVRNCNTLRLITPRNQSDPFILSAGDDNIIKVTQVTNDSLSQRAEMHSHISTVRSLQAIPYKSNGGDSSTWLVFSVGGRSQLCISQLSIDASNKCWISEISSHTLHNVAASKTSTIEARLMAIDVVQHSDGDLFSIYVAGGDGNISHYIWELETPNQLDLKHFVDIQRCPLGIQWIASKGMLLVSTTNGEVYGFDRTLETTYFQLQLHVTGINTIDIYVDRHLLHILSGGDDESIKYTVLNLNNNNVEQKIEYLGLHNAQVNALAIHCPTKSVAASELFAYTCSIDRQIYRIDLSTHKYKRVGYTCIADVKGMLLDEHQRMYFYGCGLQTMSISNIL”, the protein production was “failed”.
In the case of “MNSFKEGEYVLIRFGEKKFLRKLLPKQSLSVKKSVLKFDEVIGKPEGVKINGFEVYRPTLEEIILLGFERKTQIIYPKDSFYIALKLNLNKEKRVLEFGTGSGALLAVLSEVAGEVWTFEAVEEFYKTAQKNLKKFNLGKNVKFFNVDFKDAEVPEGIFHAAFVDVREPWHYLEKVHKSLMEGAPVGFLLPTANQVIKLLESIENYFGNLEVVEILHRHYKTISERFRPEDQMVAHTAYLVFGRKLKT”, the protein production is reported as “not failed”.
In the case of “IRVAAFNVLNYDNGAEKGFPTDRGATTATEFSRQHQKIVTALKAINADVYGLMEIANNGYDEKSAIAYLTKSLGPDWKYITPPNMNRLGSDVIAVGILYNAKRVKPVNAAVVFDDQSQKNRVTMAQTFQPIHGGKFFTVIPNHLKSKGSCPEDTASTDADQLDGQGCWNPTRVKAVEQLIQWAAKNPTRVQQPNILFLGDMNSYAKEDPILAFEKANYKVLLNDEKIGQGKQAYSYVFGVSSNALGYGGAGNIDHAIADSNLYRFVKRAFVWHINADEPTALDYNEEYKTDEQKTLFYADDAYRSSDHDPVIVDLDLKESAQQGGVLNFIQQLLDWIAQLFTRT”, the protein production is reported as “failed”.
For “MKPIQLPLSVRLRDDATFANYYPGANAAALGYVERLCEAEAGWAESLIYLWGHDGVGRSHLLQAACLRFEQFEERTIYLPMADLVQYGPEIFDDLEQCELVCIDDLDVLVGKREWEEGLFHLFNRLRDTGRRLLLAASKSPRELQVKLPDLKSRLTMALIFQLHGLSDEDKLRALQLRASRRGLHLTDEVGRFILNRGSRSMNSLFDLLEQLDRASLQAQRKLTIPFLKETLGWLEHHHHHH”, the protein production was “not failed”.
With “MTFVLNTFGRLQLVDGQGSLVAFPEKGLLLLVYLLTTGEGSADRTSLARFLWGDADRDVALSTLRKLISRIKARQTELGINILSSQGNMVSLDRESLSSDLLLSETDEAVASFSLLKHLVKLLNQPFLGPVHCHSREFQHWLAEREKSHIDLLANTLKAVSQRAQSRTESELLRKAAIILFRTEPKDPDTLQLLIEIFKAEEEVESLRNHFEQRRISISRGIAVRTASDGGDTKPVLPALAPSREKHATAVSLEPEDISIAIPRLVLLPPRNQSIHPQAGFLAASLVEDITIGFCAFNSLQVIAPYSAVQIGHHMETQKAFFERHHVNYILDTRISNAGDDVTLFAQLIFFDQNQIVWAERFSLDHRDLVKDRRTVSRRIALSISSEIERHEALREDLNPAAYHRYLVGRRHLARLTLPNLRRARKEMKAALSVSPDFAPALSSMARTYSKEWLLTARGDIDLLKTAETLATQATETRPDFADGYREFGVAKLLQGAFDQSAEAMEVAESLAPHYADVIADYADTLVHCSLPAIALRKIERAIELNPLSPDTYFWTAAGANYALGEFEASLDYIGQMADASLADRLAAANWAMLGHQDKARTFVRRFREVNPDFDVDKWLSAVPSKEQWHKDLYREGLKKAGF” the protein production was “failed”.
